From paper PMC3242506 (Biochemical Journal, 2011)

B1: domain II of human TPC2 (TPC2^422–752) (domain or fragment, UniProt Q8NHX9 422-752, looked up)
chain: LQSAQFLFGHYYFDYLGNLIALANLVSICVFLVLDADVLPAERDDFILGILNCVFIVYYLLEMLLKVFALGLRGYLSYPSNVFDGLLTVVLLVLEISTLAVYRLPHPGWRPEMVGLLSLWDMTRMLNMLIVFRFLRIIPSMKLMAVVASTVLGLVQNMRAFGGILVVVYYVFAIIGINLFRGVIVALPGNSSLAPANGSAPCGSFEQLEYWANNFDDFAAALVTLWNLMVVNNWQVFLDAYRRYSGPWSKIYFVLWWLVSSVIWVNLFLALILENFLHKWDPRSHLQPLAGTPEATYQMTVELLFRDILEEPGEDELTERLSQHPHLWLCR
B2: domain II of human TPC1 (TPC1^427–816) (domain or fragment)
chain: not shown
modifications: N-glycosylated (bands sensitive to PNGase F)
B3: first four TM regions of human TPC1 (TPC1^1–225) (domain or fragment)
chain: not shown
B4: domain I of human TPC1 (TPC1^1–347) (domain or fragment)
chain: not shown
B5: domain I of human TPC2 (TPC2^1–339) (domain or fragment, UniProt Q8NHX9 1-339, looked up)
chain: MAEPQAESEPLLGGARGGGGDWPAGLTTYRSIQVGPGAAARWDLCIDQAVVFIEDAIQYRSINHRVDASSMWLYRRYYSNVCQRTLSFTIFLILFLAFIETPSSLTSTADVRYRAAPWEPPCGLTESVEVLCLLVFAADLSVKGYLFGWAHFQKNLWLLGYLVVLVVSLVDWTVSLSLVCHEPLRIRRLLRPFFLLQNSSMMKKTLKCIRWSLPEMASVGLLLAIHLCLFTMFGMLLFAGGKQDDGQDRERLTYFQNLPESLTSLLVLLTTANNPDVMIPAYSKNRAYAIFFIVFTVIGSLFLMNLLTAIIYSQFRGYLMKSLQTSLFRRRLGTRAAFE

What was measured:
[1] = target: the molecule itself; assay: cross-linking
[2] = target: the molecule itself; assay: SDS/PAGE and Western blot without cross-linker
[3] = target: the molecule itself; assay: cross-linking; remark: listed apart in the source

| Protein | stoichiometry N [1] | stoichiometry N [2] | stoichiometry N [3] |
| --- | --- | --- | --- |
| B1 | 2.2 | – | – |
| B2 | 2.2 | 2 | – |
| B3 | – | – | 2 |
| B4 | 2.1 | – | – |
| B5 | 2.3 | 2 | – |
